For 33 molecules, IC50 results are on record in patent US20150166621A1 (Hoffmann-La Roche, published 2015).

Square brackets hold non-standard residues; d marks the D form. Nle = CCCC[C@H](N)C(=O)O; Mamp = not defined here; Nva = CCC[C@H](N)C(=O)O

Usually IC50 stands for the concentration that inhibits the measured activity by half.

B1: peptide of SEQ ID NO: 7 (peptide)
peptide: Ac-KRYDREFLLAFQF[Nle]VYDLGLRRLRQRRRLRR-NH2
SMILES: CCCC[C@H](NC(=O)[C@H](Cc1ccccc1)NC(=O)[C@H](CCC(N)=O)NC(=O)[C@H](Cc1ccccc1)NC(=O)[C@H](C)NC(=O)[C@H](CC(C)C)NC(=O)[C@H](CC(C)C)NC(=O)[C@H](Cc1ccccc1)NC(=O)[C@H](CCC(=O)O)NC(=O)[C@H](CCCNC(=N)N)NC(=O)[C@H](CC(=O)O)NC(=O)[C@H](Cc1ccc(O)cc1)NC(=O)[C@H](CCCNC(=N)N)NC(=O)[C@H](CCCCN)NC(C)=O)C(=O)N[C@H](C(=O)N[C@@H](Cc1ccc(O)cc1)C(=O)N[C@@H](CC(=O)O)C(=O)N[C@@H](CC(C)C)C(=O)NCC(=O)N[C@@H](CC(C)C)C(=O)N[C@@H](CCCNC(=N)N)C(=O)N[C@@H](CCCNC(=N)N)C(=O)N[C@@H](CC(C)C)C(=O)N[C@@H](CCCNC(=N)N)C(=O)N[C@@H](CCC(N)=O)C(=O)N[C@@H](CCCNC(=N)N)C(=O)N[C@@H](CCCNC(=N)N)C(=O)N[C@@H](CCCNC(=N)N)C(=O)N[C@@H](CC(C)C)C(=O)N[C@@H](CCCNC(=N)N)C(=O)N[C@@H](CCCNC(=N)N)C(N)=O)C(C)C
B2: peptide of SEQ ID NO: 85 (peptide)
peptide: Ac-KRKRFDREFLLAFQF[Nle]-NH2
SMILES: CCCC[C@H](NC(=O)[C@H](Cc1ccccc1)NC(=O)[C@H](CCC(N)=O)NC(=O)[C@H](Cc1ccccc1)NC(=O)[C@H](C)NC(=O)[C@H](CC(C)C)NC(=O)[C@H](CC(C)C)NC(=O)[C@H](Cc1ccccc1)NC(=O)[C@H](CCC(=O)O)NC(=O)[C@H](CCCNC(=N)N)NC(=O)[C@H](CC(=O)O)NC(=O)[C@H](Cc1ccccc1)NC(=O)[C@H](CCCNC(=N)N)NC(=O)[C@H](CCCCN)NC(=O)[C@H](CCCNC(=N)N)NC(=O)[C@H](CCCCN)NC(C)=O)C(N)=O
B3: peptide of SEQ ID NO: 78 (peptide)
peptide: Ac-Y[Nva]LLAFQF[Nle]-NH2
SMILES: CCCC[C@H](NC(=O)[C@H](Cc1ccccc1)NC(=O)[C@H](CCC(N)=O)NC(=O)[C@H](Cc1ccccc1)NC(=O)[C@H](C)NC(=O)[C@H](CC(C)C)NC(=O)[C@H](CC(C)C)NC(=O)[C@H](CCC)NC(=O)[C@H](Cc1ccc(O)cc1)NC(C)=O)C(N)=O
B4: peptide of SEQ ID NO: 80 (peptide)
peptide: Ac-KRYDREFLLAFQF[Nle]-NH2
SMILES: CCCC[C@H](NC(=O)[C@H](Cc1ccccc1)NC(=O)[C@H](CCC(N)=O)NC(=O)[C@H](Cc1ccccc1)NC(=O)[C@H](C)NC(=O)[C@H](CC(C)C)NC(=O)[C@H](CC(C)C)NC(=O)[C@H](Cc1ccccc1)NC(=O)[C@H](CCC(=O)O)NC(=O)[C@H](CCCNC(=N)N)NC(=O)[C@H](CC(=O)O)NC(=O)[C@H](Cc1ccc(O)cc1)NC(=O)[C@H](CCCNC(=N)N)NC(=O)[C@H](CCCCN)NC(C)=O)C(N)=O
B5: peptide of SEQ ID NO: 84 (peptide)
peptide: Ac-KRFDREFLLAFQF[Nle]-NH2
SMILES: CCCC[C@H](NC(=O)[C@H](Cc1ccccc1)NC(=O)[C@H](CCC(N)=O)NC(=O)[C@H](Cc1ccccc1)NC(=O)[C@H](C)NC(=O)[C@H](CC(C)C)NC(=O)[C@H](CC(C)C)NC(=O)[C@H](Cc1ccccc1)NC(=O)[C@H](CCC(=O)O)NC(=O)[C@H](CCCNC(=N)N)NC(=O)[C@H](CC(=O)O)NC(=O)[C@H](Cc1ccccc1)NC(=O)[C@H](CCCNC(=N)N)NC(=O)[C@H](CCCCN)NC(C)=O)C(N)=O
B6: peptide of SEQ ID NO: 70 (peptide)
peptide: Ac-YDREFLLDFQF[Nle]-NH2
SMILES: CCCC[C@H](NC(=O)[C@H](Cc1ccccc1)NC(=O)[C@H](CCC(N)=O)NC(=O)[C@H](Cc1ccccc1)NC(=O)[C@H](CC(=O)O)NC(=O)[C@H](CC(C)C)NC(=O)[C@H](CC(C)C)NC(=O)[C@H](Cc1ccccc1)NC(=O)[C@H](CCC(=O)O)NC(=O)[C@H](CCCNC(=N)N)NC(=O)[C@H](CC(=O)O)NC(=O)[C@H](Cc1ccc(O)cc1)NC(C)=O)C(N)=O
B7: peptide of SEQ ID NO: 74 (peptide)
peptide: Ac-YNREFLLDFQF[Nle]-NH2
SMILES: CCCC[C@H](NC(=O)[C@H](Cc1ccccc1)NC(=O)[C@H](CCC(N)=O)NC(=O)[C@H](Cc1ccccc1)NC(=O)[C@H](CC(=O)O)NC(=O)[C@H](CC(C)C)NC(=O)[C@H](CC(C)C)NC(=O)[C@H](Cc1ccccc1)NC(=O)[C@H](CCC(=O)O)NC(=O)[C@H](CCCNC(=N)N)NC(=O)[C@H](CC(N)=O)NC(=O)[C@H](Cc1ccc(O)cc1)NC(C)=O)C(N)=O

T1 sequence (P06730 other isoform, or with tags, fused parts or gaps limits assumed): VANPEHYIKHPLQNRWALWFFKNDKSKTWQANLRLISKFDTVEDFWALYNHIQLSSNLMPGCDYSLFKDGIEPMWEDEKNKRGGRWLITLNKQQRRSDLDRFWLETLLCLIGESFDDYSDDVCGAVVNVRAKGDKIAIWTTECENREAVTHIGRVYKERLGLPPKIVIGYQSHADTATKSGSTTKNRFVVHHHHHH

One test concerns the target T1, Human eIF4E (aa 28-217) with a C-terminal His tag (human, UniProt P06730 28-217).
T1 construct: also called HH-eIF4E; eukaryotic initiation factor 4E
The experiment in a line: TR-FRET competition vs biotin-4G2 peptide on HH-eIF4E. (In general: TR-FRET usually uses a lanthanide donor and a delayed reading to cut background.)
Description: (§1) Test peptides (1.6 mM stock in DMSO) were diluted 3 fold in series in DMSO and solutions were diluted 4 fold in Assay Buffer (50 mM NaPi, pH 6.5, 50 mM KCl, 1 mM DTT, 0.004% NP40 and 0.5 mg/ml gammaglobulin). […] The samples were incubated at room temperature for 20 minutes.
(§2) IC50 values were calculated using Condoseo software (Genedata AG, Basel, Switzerland).
On to B1, for which the concentration for half-maximal inhibition (IC50) stood at 0.21 µM.

The next test concerns the target T1, Human eIF4E (aa 28-217) with a …. Described as above. The source holds these as a separate data set.
Description: as §1, §2
In turn, Ac-KQYDREFLLDFQFMP[dA]-NH2 [peptide of SEQ ID NO: 64] yielded a half-inhibitory concentration (IC50) of 8.69 µM.

The molecule Ac-KQYDREFLLDFQF[dM]PA-NH2 [peptide of SEQ ID NO: 66] gave an IC50 of 7.75 µM.

Turning to Ac-YDREFLLDFQFMPA-NH2 [peptide of SEQ ID NO: 82], the IC50 was 7.52 µM.

As to B2, the IC50 was found to be 0.32 µM.

On to Ac-YDREFLLDFQF-NH2 [peptide of SEQ ID NO: 69], for which the IC50 is 12.4 µM.

As to Ac-KQYDREFLLDFQFM-NH2 [peptide of SEQ ID NO: 54], the half-inhibitory concentration (IC50) was found to be 8.84 µM. This IC50 and that of the molecule before are within 1.5-fold of each other.

In turn, B3 showed an IC50 of 6.63 µM. The IC50 values of the last two molecules are within 1.5-fold of each other.

B4 gave an IC50 of 0.643 µM.

B5: the IC50 stood at 4.07 µM.

In turn, Ac-QYDREFLLDFQFMPA-NH2 [peptide of SEQ ID NO: 81] came in with a concentration for half-maximal inhibition (IC50) of 8.68 µM.

Consider Ac-KQYDREFLLDFQFMP-NH2 [peptide of SEQ ID NO: 53], for which the IC50 is 7.46 µM.

On to Ac-[dK]QYDREFLLDFQFMPA-NH2 [peptide of SEQ ID NO: 83], for which the IC50 turned out to be 1.67 µM.

Molecule Ac-KQYDREFLLDFQ[dF]MPA-NH2 [peptide of SEQ ID NO: 67] gave an IC50 of 13.7 µM.

Ac-KQYDREFLLDFQF-NH2 [peptide of SEQ ID NO: 55] showed an IC50 of 14.6 µM. This IC50 and that of the molecule before are within 1.5-fold of each other.

B6: the IC50 came out at 3.39 µM.

For Ac-YDREFLLDFQFM-NH2 [peptide of SEQ ID NO: 68], the IC50 turned out to be 13.1 µM.

YDRQFLLDFQFL (N-terminal Ac; Nle at 12; C-terminal NH2) [peptide of SEQ ID NO: 71] displayed an IC50 of 11 µM.

The molecule YNRQFLLDFQFL (N-terminal Ac; Nle at 12; C-terminal NH2) [peptide of SEQ ID NO: 75] came in with an IC50 of 11 µM.

Consider B7, for which the IC50 was 10.9 µM.

For the molecule Ac-Y[Mamb]LLAFQF[Nle]-NH2 [peptide of SEQ ID NO: 76], the IC50 came out at 12 µM.

Ac-F[5Ava]LLAFQF[Nle]-NH2 [peptide of SEQ ID NO: 79] came in with a concentration for half-maximal inhibition (IC50) of 9.34 µM.

With Ac-KQYDREFLLDFQFMPA-NH2 [peptide of SEQ ID NO: 52], the IC50 stood at 10.5 µM. This IC50 and that of the molecule before are within 1.5-fold of each other.

In turn, Ac-KAYDREFLLDFQFMPA-NH2 [peptide of SEQ ID NO: 62] yielded an IC50 of 13.6 µM. The IC50 values of the last two molecules are within 1.5-fold of each other.

The molecule Ac-KQYDREFLLDFQFAPA-NH2 [peptide of SEQ ID NO: 58] displayed an IC50 of 11.3 µM.

Take Ac-KQYAREFLLDFQFMPA-NH2 [peptide of SEQ ID NO: 61]: the IC50 was determined as 11.8 µM.

With Ac-AQYDREFLLDFQFMPA-NH2 [peptide of SEQ ID NO: 63], the IC50 is 12.3 µM.

As for Ac-KQYDREFLLDFQFMAA-NH2 [peptide of SEQ ID NO: 57], the half-maximal inhibitory concentration (IC50) was 6.96 µM.

Take Ac-KQYDRAFLLDFQFMPA-NH2 [peptide of SEQ ID NO: 60]: the IC50 stood at 9.26 µM.

For Ac-KQYDREFLLAFQFMPA-NH2 [peptide of SEQ ID NO: 59], the IC50 amounted to 1.42 µM. Compared with the last molecule, the IC50 is about 6.5-fold lower.

Ac-Y[Mamp]LLAFQF[Nle]-NH2 (reading uncertain) [peptide of SEQ ID NO: 77] displayed an IC50 of 5.35 µM.

Ac-KQYDREFLLDFQFM[dP]A-NH2 [peptide of SEQ ID NO: 65] displayed an IC50 of 7.69 µM.

On to Ac-KQYDREFLLDF-NH2 [peptide of SEQ ID NO: 56], for which the IC50 came out at 3.44 µM.
